# Experimental data: paper PMC7954794, “Protein context shapes the specificity of SH3 domain-mediated interactions in vivo” (Nature Communications, 2021)
# B1: BBC1: yeast SH3-containing protein; SH3-deleted or knockout strain (protein, UniProt P47068 1-1157, looked up)
# Myosin tail …: MSEPEVPFKVVAQFPYKSDYEDDLNFEKDQEIIVTSVEDAEWYFGEYQDSNGDVIEGIFPKSFVAVQGSEVGKEAESSPNTGSTEQRTIQPEVEQKDLPEPISPETKKETLSGPVPVPAATVPVPAATVPVPAATAVSAQVQHDSSSGNGERKVPMDSPKLKARLSMFNQDITEQVPLPKSTHLDLENIPVKKTIVADAPKYYVPPGIPTNDTSNLERKKSLKENEKKIVPEPINRAQVESGRIETENDQLKKDLPQMSLKERIALLQEQQRLQAAREEELLRKKAKLEQEHERSAVNKNEPYTETEEAEENEKTEPKPEFTPETEHNEEPQMELLAHKEITKTSREADEGTNDIEKEQFLDEYTKENQKVEESQADEARGENVAEESEIGYGHEDREGDNDEEKEEEDSEENRRAALRERMAKLSGASRFGAPVGFNPFGMASGVGNKPSEEPKKKQHKEKEEEEPEQLQELPRAIPVMPFVDPSSNPFFRKSNLSEKNQPTETKTLDPHATTEHEQKQEHGTHAYHNLAAVDNAHPEYSDHDSDEDTDDHEFEDANDGLRKHSMVEQAFQIGNNESENVNSGEKIYPQEPPISHRTAEVSHDIENSSQNTTGNVLPVSSPQTRVARNGSINSLTKSISGENRRKSINEYHDTVSTNSSALTETAQDISMAAPAAPVLSKVSHPEDKVPPHPVPSAPSAPPVPSAPSVPSAPPVPPAPPALSAPSVPPVPPVPPVSSAPPALSAPSIPPVPPTPPAPPAPPAPLALPKHNEVEEHVKSSAPLPPVSEEYHPMPNTAPPLPRAPPVPPATFEFDSEPTATHSHTAPSPPPHQNVTASTPSMMSTQQRVPTSVLSGAEKESRTLPPHVPSLTNRPVDSFHESDTTPKVASIRRSTTHDVGEISNNVKIEFNAQERWWINKSAPPAISNLKLNFLMEIDDHFISKRLHQKWVVRDFYFLFENYSQLRFSLTFNSTSPEKTVTTLQERFPSPVETQSARILDEYAQRFNAKVVEKSHSLINSHIGAKNFVSQIVSEFKDEVIQPIGARTFGATILSYKPEEGIEQLMKSLQKIKPGDILVIRKAKFEAHKKIGKNEIINVGMDSAAPYSSVVTDYDFTKNKFRVIENHEGKIIQNSYKLSHMKSGKLKVFRIVARGYVGW
# System: growth of yeast strains under 51 stress conditions
# Assay: Growth assays in 51 stress conditions (Fig. 1E-F, S2D, S5B)
# Format: cell-based, Saccharomyces cerevisiae
# Parameters: key to Growth (Fig. S2D) / growth of ABP1 SH3-swapped strains in stress condition: log2 colony size, average of median per strain (growth score)
# Details: for Growth (Fig. S2D): ABP1 SH3-swapped strains
# Description: All WT, SH3-deleted, KO (except for CDC25 which is the only essential SH3-containing gene in yeast), ABP1 SH3-swapped, and SLA1 SH3-shuffled strains were grown on omnitrays in 1536 formats and robotically manipulated with a pin tool (the DHFR F[1,2] bait strains were used except for the KO strains). Each strain was randomly positioned in 6 replicates per plate and two plates per condition were performed, for 12 replicates per strain in total. A border of two rows and two columns of WT strains (BY4741) around the plate was used to remove border effects. Strains were grown on YPD media for two days at 30 °C. They were then replicated on 51 different media that are described in the Supplementary Table 3 and were incubated at 37 °C in a spImager custom platform with images acquired every two hours for four days. The colony sizes from plate pictures were also measured with the R package “Gitter” and the output was manually inspected. Positions with an abnormality in colony circularity were removed. The colony sizes after 74 h of incubation at 37 °C were log2 transformed and used for the analyses. First, the differences between the two plate replicates were corrected to remove plate effects. The median colony size was calculated for each strain per plate. Strains with a difference in their median colony size of more than two between the two plate replicates were removed. Finally, the average of the median colony size was calculated for each strain per condition (growth score).
molecule,measurement,setting,value
B1,"relative_to_wt, D_minus_WT","Bathophenanthroline 0.1uM, D = SH3 deletion (all SH3s deleted for multi-SH3 proteins), log2 colony size, 74 h at 37 °C, n = 12",-0.7326
same,"relative_to_wt, KO_minus_WT","Bathophenanthroline 0.1uM, KO = gene deletion, log2 colony size, 74 h at 37 °C, n = 12",-0.7845
same,Growth (Fig. S2D),Bathophenanthroline.0.1uM,10.8555
same,Growth (Fig. S2D),Bathophenanthroline.10uM,10.7329
same,Growth (Fig. S2D),Bathophenanthroline.1uM,10.8406
same,Growth (Fig. S2D),CaCl2.100mM,10.8635
same,Growth (Fig. S2D),CaCl2.250mM,10.7473
same,Growth (Fig. S2D),CaCl2.500mM,10.2321
same,Growth (Fig. S2D),Caffein.10mM,10.0361
same,Growth (Fig. S2D),Caffein.2mM,11.0328
same,Growth (Fig. S2D),CdCl2.100uM,9.446
same,Growth (Fig. S2D),CdCl2.10uM,10.9111
same,Growth (Fig. S2D),CdCl2.50uM,9.87
same,Growth (Fig. S2D),CuSO4.1mM,10.4195
same,Growth (Fig. S2D),CuSO4.5mM,7.7318
same,Growth (Fig. S2D),Cycloheximide.0.05.uM,11.1604
same,Growth (Fig. S2D),Cycloheximide.0.2.uM,10.7217
same,Growth (Fig. S2D),Cycloheximide.0.5.uM,10.1165
same,Growth (Fig. S2D),DMSO.2.,11.0262
same,Growth (Fig. S2D),DMSO.6.,9.821
same,Growth (Fig. S2D),DMSO.8.,9.042
same,Growth (Fig. S2D),Ethanol.2.,10.863
same,Growth (Fig. S2D),Ethanol.6.,10.43
same,Growth (Fig. S2D),Ethanol.8.,10.2184
same,Growth (Fig. S2D),Galactose.2.,10.7901
same,Growth (Fig. S2D),Glycerol.2.,9.731
same,Growth (Fig. S2D),Hydroxyurea.25mM,10.7777
same,Growth (Fig. S2D),Hygromycin.190uM,11.0445
same,Growth (Fig. S2D),Hygromycin.19uM,11.0769
same,Growth (Fig. S2D),Hygromycin.95uM,11.0543
same,Growth (Fig. S2D),MMS.0.004.,10.9787
same,Growth (Fig. S2D),MMS.0.02.,10.743
same,Growth (Fig. S2D),MMS.0.04.,9.98
same,Growth (Fig. S2D),Menadione.100uM,10.5737
same,Growth (Fig. S2D),Menadione.200uM,10.4364
same,Growth (Fig. S2D),Menadione.50uM,10.8865
same,Growth (Fig. S2D),NaCl.0.25M,10.7759
same,Growth (Fig. S2D),NaCl.1M,9.566
same,Growth (Fig. S2D),Nitroquinoline.10uM,10.676
same,Growth (Fig. S2D),Nitroquinoline.50uM,10.6106
same,Growth (Fig. S2D),Nystatin.0.01uM,10.9601
same,Growth (Fig. S2D),Nystatin.0.1uM,11.003
same,Growth (Fig. S2D),Raffinose.2.,11.0344
same,Growth (Fig. S2D),Rapamycin.10nM,9.767
same,Growth (Fig. S2D),Rapamycin.50nM,9.406
same,Growth (Fig. S2D),SC.pH3,10.4328
same,Growth (Fig. S2D),SC.pH6,11.0565
same,Growth (Fig. S2D),SDS.0.01.,11.0008
same,Growth (Fig. S2D),SDS.0.02.,11.0385
same,Growth (Fig. S2D),SDS.0.05.,10.9076
same,Growth (Fig. S2D),Sorbitol.10mM,11.0218
same,Growth (Fig. S2D),Sorbitol.1mM,10.99
same,Growth (Fig. S2D),Sorbitol.5mM,10.8909
